Results reported in patent US20210246166A1 (Bayer, published 2021).
Each block holds one binder with its values, some of them ahead of it. Bridge positions count the residues as written; N and C are the ends. Square brackets hold non-standard residues; d marks the D form. Primed or numbered codes have the meaning given here. Ends that are not written are not given here. * marks the point of attachment. Tranexamic″ = tranexamic acid, NC[C@H]1CC[C@@H](C(=O)*)CC1; Pro(trans-4-F) = O=C(O)[C@@H]1C[C@@H](F)CN1; Cyclobutylacetic = O=C(CC1CCC1)*; tBuAla = CC(C)(C)C[C@H](N)C(=O)O; Chg = N[C@H](C(=O)O)C1CCCCC1; Pen = CC(C)(S)[C@H](N)C(=O)O; NMeC = CN[C@@H](CS)C(=O)O; Aib = CC(C)(N)C(=O)O; Sar = CNCC(=O)O

What was measured:
[1] = target: T1, Recombinant human MASP1 enzyme (fragment corresponding to amino acids 297-699, C-terminal His Tag) (human, UniProt P48740 297-699); assay: cell-based or functional assay
T1 sequence: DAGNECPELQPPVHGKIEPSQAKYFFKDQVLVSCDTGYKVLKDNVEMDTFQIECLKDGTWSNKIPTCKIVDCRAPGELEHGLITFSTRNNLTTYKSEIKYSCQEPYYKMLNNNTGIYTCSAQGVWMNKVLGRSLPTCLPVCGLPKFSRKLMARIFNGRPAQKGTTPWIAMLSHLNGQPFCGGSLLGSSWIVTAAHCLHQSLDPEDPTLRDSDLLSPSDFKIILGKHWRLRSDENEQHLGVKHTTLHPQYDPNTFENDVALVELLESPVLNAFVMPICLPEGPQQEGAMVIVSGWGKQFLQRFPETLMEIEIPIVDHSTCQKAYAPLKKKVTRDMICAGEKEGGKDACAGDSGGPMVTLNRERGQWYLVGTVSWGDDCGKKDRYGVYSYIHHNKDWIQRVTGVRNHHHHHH

[2] = target: Recombinant human MASP2 enzyme (fragment corresponding to amino acids 297-686, C-terminal His Tag) (human, UniProt O00187 297-686); assay: cell-based or functional assay
Recombinant human MASP2 enzyme (fragment corresponding to amino acids 297-686, C-terminal His Tag), sequence (O00187 other isoform, or with tags, fused parts or gaps limits assumed): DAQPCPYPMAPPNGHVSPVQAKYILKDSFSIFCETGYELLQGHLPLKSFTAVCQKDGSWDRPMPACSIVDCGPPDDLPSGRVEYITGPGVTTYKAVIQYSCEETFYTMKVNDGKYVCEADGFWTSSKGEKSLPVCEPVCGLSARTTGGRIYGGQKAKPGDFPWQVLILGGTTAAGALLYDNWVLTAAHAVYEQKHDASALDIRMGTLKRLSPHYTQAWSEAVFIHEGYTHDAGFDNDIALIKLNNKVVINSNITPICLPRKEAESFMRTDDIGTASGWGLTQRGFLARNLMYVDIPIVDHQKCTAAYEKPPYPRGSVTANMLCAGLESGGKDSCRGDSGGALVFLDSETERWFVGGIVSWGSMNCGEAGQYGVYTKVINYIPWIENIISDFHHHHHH

human MASP1 IC50 [1]: 15 nM | human MASP2 IC50 [2]: 891 nM
B1: ((N-Me)G)-IC+SRSLPP-(Chg)-C+IPD-NH2 (peptide)
peptide: [Sar]ICSRSLPP[Chg]CIPD-NH2
modifications: disulfide 3-11; N-terminus assumed
SMILES: CC[C@H](C)[C@H](NC(=O)CNC)C(=O)N[C@H]1CSSC[C@@H](C(=O)N[C@H](C(=O)N2CCC[C@H]2C(=O)N[C@@H](CC(=O)O)C(N)=O)[C@@H](C)CC)NC(=O)[C@H](C2CCCCC2)NC(=O)[C@@H]2CCCN2C(=O)[C@@H]2CCCN2C(=O)[C@H](CC(C)C)NC(=O)[C@H](CO)NC(=O)[C@H](CCCNC(=N)N)NC(=O)[C@H](CO)NC1=O

human MASP1 IC50 [1]: 15 nM | human MASP2 IC50 [2]: 26 nM
B2: (Tranexamic)-IC+SRS-((tBu)A)-PPI-((N-Me)C)+I-NH2 (peptide)
peptide: {Tranexamic″}-ICSRS[tBuAla]PPI[NMeC]I-NH2
modifications: disulfide 2-10
SMILES: CC[C@H](C)[C@H](NC(=O)[C@@H]1CSSC[C@H](NC(=O)[C@@H](NC(=O)[C@H]2CC[C@@H](CN)CC2)[C@@H](C)CC)C(=O)N[C@@H](CO)C(=O)N[C@@H](CCCNC(=N)N)C(=O)N[C@@H](CO)C(=O)N[C@@H](CC(C)(C)C)C(=O)N2CCC[C@H]2C(=O)N2CCC[C@H]2C(=O)N[C@@H]([C@@H](C)CC)C(=O)N1C)C(N)=O

human MASP1 IC50 [1]: 15 nM | human MASP2 IC50 [2]: 9.3 nM
B3: (Cyclobutylacetic)-IC+SRS-((tBu)A)-PPI-(Pen)+IP-NH2 (peptide)
peptide: Cyclobutylacetic-ICSRS[tBuAla]PPI[Pen]IP-NH2
modifications: disulfide 2-10
SMILES: CC[C@H](C)[C@H](NC(=O)CC1CCC1)C(=O)N[C@H]1CSSC(C)(C)[C@@H](C(=O)N[C@H](C(=O)N2CCC[C@H]2C(N)=O)[C@@H](C)CC)NC(=O)[C@H]([C@@H](C)CC)NC(=O)[C@@H]2CCCN2C(=O)[C@@H]2CCCN2C(=O)[C@H](CC(C)(C)C)NC(=O)[C@H](CO)NC(=O)[C@H](CCCNC(=N)N)NC(=O)[C@H](CO)NC1=O

human MASP1 IC50 [1]: 16 nM | human MASP2 IC50 [2]: 160 nM
B4: GIC+SRSLPPIC+I-(Aib)-D-OH (peptide)
peptide: GICSRSLPPICI[Aib]D-OH
modifications: disulfide 3-11; N-terminus assumed
SMILES: CC[C@H](C)[C@H](NC(=O)CN)C(=O)N[C@H]1CSSC[C@@H](C(=O)N[C@H](C(=O)NC(C)(C)C(=O)N[C@@H](CC(=O)O)C(=O)O)[C@@H](C)CC)NC(=O)[C@H]([C@@H](C)CC)NC(=O)[C@@H]2CCCN2C(=O)[C@@H]2CCCN2C(=O)[C@H](CC(C)C)NC(=O)[C@H](CO)NC(=O)[C@H](CCCNC(=N)N)NC(=O)[C@H](CO)NC1=O

human MASP1 IC50 [1]: 16 nM | human MASP2 IC50 [2]: 490 nM
B5: ((N-Me)G)-IC+SRSLPPIC+I-((trans-4-Fluoro)P)-D-OH (peptide)
peptide: [Sar]ICSRSLPPICI[Pro(trans-4-F)]D-OH
modifications: disulfide 3-11; N-terminus assumed
SMILES: CC[C@H](C)[C@H](NC(=O)CNC)C(=O)N[C@H]1CSSC[C@@H](C(=O)N[C@H](C(=O)N2C[C@H](F)C[C@H]2C(=O)N[C@@H](CC(=O)O)C(=O)O)[C@@H](C)CC)NC(=O)[C@H]([C@@H](C)CC)NC(=O)[C@@H]2CCCN2C(=O)[C@@H]2CCCN2C(=O)[C@H](CC(C)C)NC(=O)[C@H](CO)NC(=O)[C@H](CCCNC(=N)N)NC(=O)[C@H](CO)NC1=O

human MASP1 IC50 [1]: 16 nM | human MASP2 IC50 [2]: 6500 nM
B6: ((N-Me)G)-IC+TRSLPPIC+IPD-OH (peptide)
peptide: [Sar]ICTRSLPPICIPD-OH
modifications: disulfide 3-11; N-terminus assumed
SMILES: CC[C@H](C)[C@H](NC(=O)CNC)C(=O)N[C@H]1CSSC[C@@H](C(=O)N[C@H](C(=O)N2CCC[C@H]2C(=O)N[C@@H](CC(=O)O)C(=O)O)[C@@H](C)CC)NC(=O)[C@H]([C@@H](C)CC)NC(=O)[C@@H]2CCCN2C(=O)[C@@H]2CCCN2C(=O)[C@H](CC(C)C)NC(=O)[C@H](CO)NC(=O)[C@H](CCCNC(=N)N)NC(=O)[C@H]([C@@H](C)O)NC1=O
